Data reported in patent US9833505.

Biological target: ZIKV Recombinant Envelope Protein (Meridian Life Sciences, Cat # R01635) (Zika virus)
Test: ELISA on coated recombinant ZIKV E protein, dilutions of the mAb as positive control

With “monoclonal anti-Flavivirus group antigen clone D1-4G2-4-15, ascites (Cat# MAB10216, EMD Millipore) (antibody)” the end point titre was 16000.
